Results on 1 protein are retold here after article PMC12035560, “Structures of Mycobacterium tuberculosis isoprenyl diphosphate synthase Rv2173 in substrate-bound forms” (Acta Crystallographica Section F: Structural Biology …, 2025).

The data set deals with the molecule itself. In words: crystal structure.

As a reminder, the stoichiometry N is the number of molecules, sites or subunits per partner or assembly.

B1: Mycobacterium tuberculosis isoprenyl diphosphate synthase Rv2173 (enzyme)
chain: LESTSLYKKAGSAAALFRFKKEPFTMAGAITDQLRRYLHGRRRAAAHMGSDYDGLIADLEDFVLGGGKRLRPLFAYWGWHAVASREPDPDVLLLFSALELLHAWALVHDDLIDRSATRRGRPTAQLRYAALHRDRDWRGSPDQFGMSAAILLGDLAQVWADDIVSKVCQSALAPDAQRRVHRVWADIRNEVLGGQYLDIVAEASAAESIESAMNVATLKTACYTVSRPLQLGTAAAADRSDVAAIFEHFGADLGVAFQLRDDVLGVFGDPAVTGKPSGDDLKSGKRTVLVAEAVELADRSDPLAAKLLRTSIGTRLTDAQVRELRTVIEAVGARAAAESRIAALTQRALATLASAPINATAKAGLSELAMMAANRSA
notes: also called tagged Rv2173; not shown: His6, N-terminal, kept
For the protein B1, the “stoichiometry N” value is 2.
